Data on 32 molecules can be found in patent US20230176070A1.

Positions count from the first letter of the chain named.

The chains are these.
B1: G8 (VHH)
VHH: QVQLVESGGGLVQAGGSLRLSCAASGITSSIASMGWFRQAPGKEEEFVARIRWNTDNTYYADSVKGRFTISRDNAQNTVYLQMNRLKPEDTAVYYCVARRGWSDLLYDYRGQGTQVTVSS
B2: G93 (VHH)
VHH: QVQLVESGGGLVQPGGSLRLSCAASGSGFSSSIIGWHRQAPGKQRELVAAIGGPGSTNYADSVKGRFTISRDNAKNTAYLQMNNLKPEDSAVYYCEATTRSGREYWGQGTQVTVSS
B3: G80 (VHH)
VHH: QVQLVESGGGLVQAGASLRLSCAASRGTFSSYTMGWFRQAPGKERLFVASISRDGGTTYYADSVKGRFTISRDNAENILYLQMNSLKPEDTAVYYCAAASRHPSTWEVWGLEYYYWGQGTQVTVSS
B4: G41 (VHH)
VHH: DVQLVESGGGLVQAGGSLRLSCVASGHTVSNYAMAWFRQAPGKEREFVAGISWRASITYYRDSVKGRFTISRDNAKNTVYLQMSSLKPEDTAVYYCASDKTHYVSRGTSLVEYDYWGQGTQVTVSS
B5: G90 (VHH)
VHH: DVQLVESGGGLVQAGGSLRLSCAASGLTFSNYAMGWFRQAPGKEREFAAGITWNGGASHYADSVKGRFTISRDNAQNTVYLQMNSLKPEDTAVYYCAARLGSVAYPGLRYDYWGQGTQVTVSS
B6: G50 (VHH)
VHH: EVQLVESGGGLVQAGGSLRLSCAASGRTFSRYHMGWFRQAPGKERDVVAAISWSGDSTYYADSVKGRFTISKDNAKNTVYLQMDSLKPEDTAVYYCATLSGWDGDTIFPAGSWGQGTQVTVSS
B7: G1 (VHH)
VHH: QVQLVESGGGLVQAGGSLRLSCAAPGSTFSTNIIAWYRQPPGKQRELVAAIGGPGSTNYADSVKGRFTISRDNAKNTGYLQMKSLKPDDTAVYYCNMVTQRGNEYWGQGTQVTVSS
B8: G49 (VHH)
VHH: EVQLVESGGGLVQAGGSLRLSCAASRSTFSINAAGWYRQAPGKQRELVAAISSGGSANYADSVKGRFIISRDNAKNTVYLQMNSLKPEDTAVYYCRVPYYRDDGYEYYSWGQGTQVTVSS
B9: G42 (VHH)
VHH: HVQLVESGGGFVQAGGSLRLSCEASGRTFNVYTMGWFRQAPGKEREFVGSISWNGGSTYYADSVKGRFTISRDNAKNTVYLQMNSLEPEDTAVYYCAARRQSHLRLDLSVIDAWGKGTQVTVSS
B10: G23 (VHH)
VHH: QVQLVESGGGLVQPGGSLRLSCAASGFTFSVNTMSWVRQAPGKGREWVSGIESHGNTYYSDSVKGRFTISRDNAKNTLYLQMNSLKPEDTAVYYCATGIYGTTRNWGQGTQVTVSS
B11: G96 (VHH)
VHH: DVQLVESGGGLVQAGGSLKLSCAAFGVTFDINTIAWYRQAPGKQREFVAHITSGGTTYYADSVKARFTMSRDSAKNTVYLQMNNLKPEDTAVYYCNVNPTWPYSGEVDYWGQGTQVTVSS
B12: G14 (VHH)
VHH: EVQLVESGGGLVQAGGSLRLSCAASGSTFDTNPIGWYRQAPGKQRDLVAMITSGGHTNYADSVKGRFTISRDNAKNTVYLQMNSLKPEDTAVYYCTVPHYREDGYEYHFWGQGTQVTVSS
B13: G15 (VHH)
VHH: B12 VHH with E1Q, F109C
B14: G19 (VHH)
VHH: B12 VHH with E1Q, D30S, P33A, I34V, G35D, K43N, M50T, T96A, H108R
B15: G79 (VHH)
VHH: DVQLVESGGGLVQAGGSLRLSCATSGRTFSTYAAGWFRQRPGKEREFVATIHWNDGRTLYADSVKGRFTLSRDNAQNTVYLQMNSLKPEDTAVYYCAAYTYRIGSYDVSTSQGYDYWGQGTQVTVSS
B16: G43 (VHH)
VHH: B15 VHH with D1E, F29S, A34M, N54G, D55V, R57S, L59I, Y99S, D115N
B17: G98 (VHH)
VHH: B15 VHH with D1Q, G16D, Y99S
B18: G30 (VHH)
VHH: QVQLVESGGGLVQAGGSLRLSCAASGRTINNYDMGWFRQAPGKEREFVAAITWSGRDTNYADSVKGRFTVSRDDAKNTVYLQMNTLSPEDTAVYYCASARIQFYRLVAATRTDYSYWGQGTQVTVSS
B19: G45 (VHH)
VHH: EVQLVESGGGLVQPGGSLRLSCAASGSIFSINSMGWYRQAPGKQRELVAAITSGGSTNYANSVKGRFTISRNNARNTVWLQMNSLKPEDTAVYYCNADLNVVRGYSGDYHGSSDYWGQGTQVTVSS
B20: G78 (VHH)
VHH: DVQLVESGGGLVQAGGSLRLSCTASQSILYINVMGWYRQAPGKQRELVAEIPTGGNTDYADSVKGRFTISRDNVKNTVSLQMNSLKPEDTAVYYCNVRGGVLSPYDYWGQGTQVTVSS
B21: G91 (VHH)
VHH: EVQLVESGGGLVQAGGSLRLSCAASGRTFSDYPMAWFRQALGKEREFLATISTSGSRTMYADSVKGRFTISRDNAKNMMYLQMNSLKPEDAAVYYCAARQGSYYSDYNRALPGEYHYWGQGTQVTVSS
B22: G39 (VHH)
VHH: HVQLVESGGELVQSGSSLRLSCAASGFDLDDYAIGWFRQAPGKEREGVSCTSTSDGPTSYLDSVKGRFTFSRDNAKNTLYLQMNSLKPEDTAVYYCAAISHIFAEDAPAMGLCWDQRSAFWYWGQGTQVTVSS
B23: G37 (VHH)
VHH: EVQLVESGGGLVQAGDSLRLSCVASGDTFTSYTVGWFRQAPGKEQEFVAGISWSGRSTDYADFVKGRATISKDIAKVSLQMNALKPEDTAVYSCAAKKVDWSSDYVTNYDYDYRGRGTQVTVSS
B24: G97 (VHH)
VHH: EVQLVESGGGLVQAGGSLRLSCTASRSTFRVNPAGWYRQAPGKERELVARITSGGSTNYADSVKGRFTISRDNAKNTVYLQMNSLKPEDTAVYYCNVPCYMEDGYEHDAWGQGTQVTVSS
B25: G12 (VHH)
VHH: B24 VHH with E1Q, T23A, V31I, P33A, T52S, C99Y, M101R, H107Y
B26: G44 (VHH)
VHH: DVQLVESGGGLVQAGGSLRLSCVASGPIFSFSTGGWYRQAPGKQRELVAALTGGGNTNYADSVKGRFTISRDNAKNTVYLQMNLLKPEDTAVYYCQVMYYSGYDGYESTSWGQGTQVTVSS
B27: G25 (VHH)
VHH: EVQLVESGGGLVQAGGSLRLSCAASGRTFSGRTFSDYPMAWFRQAPGKEREFLATISTSGSRTYYADSVKGRFTISRDNAKDTVYLQMNSLKPEDAAIYYCAARQGSYYSDYNRALPGEYDYWGQGTQVTVSS
B28: G16 (VHH)
VHH: EVQLVESGGGLVQPGGSLRLSCAASGSTFSINAIGWYRQAPGKEREFVAALRWPGNIWYYADFVEGRITISRDNAKNTVYLQMNSLKPEDTAVYYCAARPENRGSYRDAATYDFWGQGTQVTVSS
B29: G20 (VHH)
VHH: DVQLVESGGGLVQAGGSLRLSCAASERTFSRYMLGWFRQAPGKEREFVGVMGWSDSDTYYGDAVKGRFTISRDNVKNTIYLQMKSLKPEDTAVYYCAASAYGSTRNHKLYEYWGQGTQVTVSS
B30: G89 (VHH)
VHH: EVQLVESGGGLVQAGGSLSLSCAASGSINSINAMGWFRQAPGKQRELVATITRGGSTNYADSVKGRFTISIDNAKNTVYLQMNSLKPEDTAVYYCNADRGTDDGWLYDYWGQGTQVTVSS
B31: G27 (VHH)
VHH: DVQLVESGGDLVQAGGSLRLSCSASGNIFKINDMDWYRQAPGKQRELVARISSSGSTNYADSVKGRFTISRDNGKNTVYLQMNRVKPEDTAVYYCNADVQVSRNYEYEYWGQGTQVTVSS
B32: G86 (VHH)
VHH: EVQLVESGGGLVQAGDSLRLSCAASGRTFSSYTMGWFRQAPGKEREFVAGIRWSGGSTYFTNYEDSVKGRFTISKDNAKNTVFLQMNSLRPEDTAVYYCAFTGHYSTYDSPQRYDYWGQGTQVTVSS

Chain of glutathione S-transferase [GST: P08515] (P08515 whole entry): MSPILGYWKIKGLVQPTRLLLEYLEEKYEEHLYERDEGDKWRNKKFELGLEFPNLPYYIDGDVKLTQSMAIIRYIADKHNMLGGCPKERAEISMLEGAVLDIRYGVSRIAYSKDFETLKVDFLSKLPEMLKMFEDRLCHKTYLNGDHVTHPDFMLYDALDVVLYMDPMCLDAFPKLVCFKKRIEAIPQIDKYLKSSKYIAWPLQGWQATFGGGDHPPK

This experiment addresses glutathione S-transferase [GST: P08515]. The experiment can be described thus: indirect ELISA, GST coated.
B1 gave an ELISA affinity (LogIC50 (oD450nm)) of 4.66.
The molecule B2 yielded an ELISA affinity (LogIC50 (oD450nm)) of 2.16.
With B3, the ELISA affinity (LogIC50 (oD450nm)) turned out to be 4.43.
The figure for B4 is 1.02; for B5 it is 5.83.
The figure for B6 is 1.09.
In turn, B7 showed an ELISA affinity (LogIC50 (oD450nm)) of 2.93.
Take B8: the ELISA affinity (LogIC50 (oD450nm)) worked out at 5.54.
The value for B9 was 2.63; that for B10 was 2.54.
The figure for B11 is 6.77; for B12 it is 5.27; for B13 it is 4.61.
The value for B14 was 9; that for B15 was 2.07.
Molecule B16 registered an ELISA affinity (LogIC50 (oD450nm)) of 4.32.
The figure for B17 is 4.67; for B18 it is 4.86; for B19 it is 3.17.
The figure for B20 is 2.08; for B21 it is 1.15.
The figure for B22 is 1.65; for B23 it is 1.78; for B24 it is 3.3.
Molecule B25 came in with an ELISA affinity (LogIC50 (oD450nm)) of 4.21.
The figure for B26 is 3.06; for B27 it is 1.57.
The value for B28 was 5.68; that for B29 was 2.43; that for B30 was 5.74.
The figure for B31 is 1.36; for B32 it is 5.54.
